Usually IC50 stands for the concentration that inhibits the measured activity by half. The term Kd denotes the free concentration of one partner at which half of the binding sites on the other are occupied at equilibrium, for simple one-to-one binding.

Series [1] addresses T1, SpoVG (Borrelia burgdorferi, UniProt O51726 1-97).
T1 sequence: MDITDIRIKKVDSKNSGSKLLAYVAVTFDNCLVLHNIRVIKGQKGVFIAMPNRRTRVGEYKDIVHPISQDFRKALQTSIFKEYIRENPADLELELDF
The series is described as follows: competition.

Series [2] concerns the target T1, SpoVG. Briefly: competition. The source holds these as a separate data set.
The target in series [3] is T1, SpoVG. The series is described as follows: EMSA.

For the molecule UAUGUACUUUAAGCGGGAGGCUUAUAA (ssRNA) [RNA-17], the binding result with SpoVG [1] is listed as “binds”.

UAUGUACUUUUUGCGGGAGGCUUAUAA (ssRNA) [spoVG RNA]: the IC50 with SpoVG [2] amounted to 1030 nM. Further, the Kd in the series with SpoVG [3] was found to be 59 nM. For UAUGUACUUAAAGCGGGAGGCUUAUAA (ssRNA) [RNA-20], the binding result with SpoVG [1] was “binds”. Same read-out and setting: to UAUGUACAAAAAGCGGGAGGCUUAUAA (ssRNA) [RNA-03] belongs “binds”.

(Values after paper PMC11086051.)
